For 114 variants, abundance fitness results are on record in the Human Domainome abundance scans (Beltran et al. 2025).

± gives the uncertainty stated by the source.

B1: Tyrosine-protein kinase Lck, residues 63 to 120; numbered along this chain, P06239 (parent)
chain: DNLVIALHSYEPSHDGDLGFEKGEQLRILEQSGEWWKAQSLTTGQEGFIPFNFVAKAN

This data set covers variants of B1. The data set can be described thus: abundance fitness (aPCA) (normalised: wild type 0, dead -1); higher = more abundant; growth selection in yeast, the domain comes from the species named. Conditions: Homo sapiens.
With F48M, the abundance fitness is -0.063 ± 0.092.
Take F48Q: the abundance fitness was -0.274 ± 0.12.
For the variant F48G, the abundance fitness is -0.576 ± 0.063.
Regarding F48D, the abundance fitness was -0.559 ± 0.14.
Under F48S stands -0.308 ± 0.079; under F48T, -0.115 ± 0.11.
For F48A, the abundance fitness was -0.235 ± 0.081.
Under F48W stands 0.075 ± 0.077.
In the case of F48R, the abundance fitness is 0.011 ± 0.062.
With F48V, the abundance fitness was -0.096 ± 0.064.
Regarding P50D, the abundance fitness is -0.73 ± 0.3.
Take P50I: the abundance fitness was -0.874 ± 0.24.
Take P50H: the abundance fitness is -0.474 ± 0.15.
In the case of P50M, the abundance fitness is -1.03 ± 0.18.
For the variant P50N, the abundance fitness is -0.652 ± 0.18.
For the variant P50L, the abundance fitness was -0.995 ± 0.12.
As for P50G, the figure is -0.888 ± 0.1; as for P50W, -0.709 ± 0.16; as for P50E, -1.21 ± 0.28.
Under P50Y stands -1.08 ± 0.34.
With P50S, the abundance fitness is -0.796 ± 0.12.
Under P50K stands -0.719 ± 0.15; under P50V, -0.936 ± 0.13.
On to P50F, for which the abundance fitness is -0.885 ± 0.21.
Under P50T stands -0.851 ± 0.15; under P50A, -1 ± 0.2; under A55T, -0.013 ± 0.1.
With A55N, the abundance fitness was -0.231 ± 0.19.
As for A55K, the figure is -0.154 ± 0.13; as for A55V, -0.021 ± 0.076.
On to A55F, for which the abundance fitness was -0.369 ± 0.13.
Turning to A55M, the abundance fitness is -0.12 ± 0.12.
On to A55Y, for which the abundance fitness was -0.261 ± 0.19.
Regarding A55R, the abundance fitness was -0.019 ± 0.06.
Consider A55E, for which the abundance fitness came to 0.037 ± 0.09.
For the variant A55Q, the abundance fitness was 0.04 ± 0.14.
As for A55P, the figure is -0.835 ± 0.18; as for A55C, -0.141 ± 0.12.
Regarding A55G, the abundance fitness is -0.007 ± 0.057.
On to A55D, for which the abundance fitness was -0.102 ± 0.11.
Regarding A55L, the abundance fitness is -0.4 ± 0.1.
Under A55W stands -0.515 ± 0.11.
Under A55H stands -0.27 ± 0.12; under A55I, -0.084 ± 0.14; under F51Q, 0.021 ± 0.12.
As to F51H, the abundance fitness is -0.055 ± 0.17.
Regarding F51K, the abundance fitness turned out to be 0.103 ± 0.11.
Consider F51A, for which the abundance fitness turned out to be 0.104 ± 0.083.
As for F51M, the abundance fitness turned out to be 0.137 ± 0.12.
F51C: the abundance fitness amounted to 0.163 ± 0.1.
For F51L, the abundance fitness was -0.221 ± 0.073.
As for F51G, the abundance fitness was 0.095 ± 0.071.
Take F51P: the abundance fitness turned out to be 0.07 ± 0.099.
As to F51I, the abundance fitness was found to be 0.047 ± 0.18.
On to F51E, for which the abundance fitness is -0.022 ± 0.11.
For F51R, the abundance fitness worked out at 0.148 ± 0.076.
With F51V, the abundance fitness is -0.033 ± 0.082.
As to F51N, the abundance fitness was found to be 0.043 ± 0.15.
Consider F51Y, for which the abundance fitness is -0.037 ± 0.14.
Under F51T stands -0.235 ± 0.12; under F51D, -0.178 ± 0.12.
For the variant I49P, the abundance fitness is -0.759 ± 0.17.
Regarding I49C, the abundance fitness is -0.67 ± 0.15.
As for I49D, the figure is -0.801 ± 0.18; as for I49Y, -1.2 ± 0.28.
As for I49R, the figure is -0.792 ± 0.079; as for I49V, -0.094 ± 0.071; as for I49E, -0.996 ± 0.14.
I49H: the abundance fitness is -0.794 ± 0.23.
Regarding I49T, the abundance fitness was -0.622 ± 0.14.
Under I49G stands -0.905 ± 0.11; under I49Q, -0.796 ± 0.17; under I49L, -0.367 ± 0.079.
Regarding I49K, the abundance fitness was -0.771 ± 0.18.
As to I49N, the abundance fitness is -0.828 ± 0.21.
As for I49W, the abundance fitness was -0.967 ± 0.13.
With I49A, the abundance fitness was -0.646 ± 0.11.
Under I49S stands -0.939 ± 0.12; under I49M, -0.663 ± 0.24.
In the case of I49F, the abundance fitness was -0.427 ± 0.16.
With K56F, the abundance fitness was -0.087 ± 0.085.
On to K56S, for which the abundance fitness is -0.002 ± 0.085.
For the variant K56A, the abundance fitness was 0.019 ± 0.085.
As for K56D, the figure is -0.108 ± 0.11; as for K56M, -0.146 ± 0.11.
As to K56Q, the abundance fitness was -0.174 ± 0.11.
In the case of K56N, the abundance fitness came out at 0.055 ± 0.16.
As for K56I, the abundance fitness is -0.233 ± 0.13.
In the case of K56P, the abundance fitness amounted to 0.04 ± 0.095.
On to K56E, for which the abundance fitness stood at 0.022 ± 0.12.
As to K56T, the abundance fitness is -0.095 ± 0.099.
Under K56W stands -0.095 ± 0.1; under K56Y, -0.138 ± 0.12; under K56R, -0.09 ± 0.067.
As to K56V, the abundance fitness is -0.118 ± 0.085.
For the variant K56L, the abundance fitness is -0.217 ± 0.078.
Turning to K56H, the abundance fitness was 0.015 ± 0.12.
On to K56C, for which the abundance fitness was -0.117 ± 0.099.
On to K56G, for which the abundance fitness was -0.123 ± 0.066.
Turning to G47D, the abundance fitness is -0.912 ± 0.15.
G47C: the abundance fitness is -1.07 ± 0.18.
Turning to G47F, the abundance fitness was -0.982 ± 0.45.
For the variant G47S, the abundance fitness was -0.931 ± 0.12.
Turning to G47V, the abundance fitness is -0.807 ± 0.09.
As for G47L, the abundance fitness was -0.789 ± 0.1.
In the case of G47P, the abundance fitness is -0.687 ± 0.15.
In the case of G47T, the abundance fitness was -0.831 ± 0.15.
Regarding G47W, the abundance fitness was -0.831 ± 0.15.
As to G47M, the abundance fitness was -0.884 ± 0.17.
Take G47Q: the abundance fitness was -0.986 ± 0.18.
For the variant G47H, the abundance fitness is -0.81 ± 0.21.
G47R: the abundance fitness was -0.687 ± 0.085.
As for G47I, the abundance fitness was -1.02 ± 0.3.
In the case of G47E, the abundance fitness was -0.831 ± 0.12.
